Measurements published in the Immune Epitope Database (IEDB).

Experiments:
HLA-B*48:01 = experiment: IEDB peptide-MHC binding, purified MHC/direct/fluorescence; filed as Kd, often an IC50 or EC50 that approximates it; ≥ and ≤ were set here for values at or beyond the usual limits of such assays; details: source organism: Campylobacter jejuni RM1221
HLA-B*27:05 = experiment: as above
HLA-B*08:03 = experiment: as above
HLA-B*57:01 = experiment: as above; details: source organism: Campylobacter jejuni RM1221
HLA-B*46:01 [1] = experiment: as above
HLA-B*15:01 [2] = experiment: as above
HLA-B*58:01 = experiment: as above
HLA-B*07:02 = experiment: as above
HLA-A*03:01 = experiment: as above
HLA-B*15:17 = experiment: as above; details: source organism: Campylobacter jejuni RM1221
HLA-B*18:01 = experiment: as above
HLA-A*68:02 = experiment: as above; details: source organism: Campylobacter jejuni RM1221
HLA-A*01:01 = experiment: as above
HLA-A*02:01 [3] = experiment: as above
HLA-A*31:01 = experiment: as above
HLA-B*40:01 = experiment: as above
HLA-A*80:01 = experiment: as above; details: source organism: Mammarenavirus lassaense
HLA-B*46:01 [4] = experiment: IEDB peptide-MHC binding, purified MHC/competitive/fluorescence; filed as Kd, often an IC50 or EC50 that approximates it; ≥ and ≤ were set here for values at or beyond the usual limits of such assays; details: source organism: Mopeia Lassa virus reassortant 29
HLA-B*35:01 = experiment: as above; details: source organism: Mopeia Lassa virus reassortant 29
HLA-A*24:02 [5] = experiment: as above
HLA-B*08:01 [6] = experiment: IEDB peptide-MHC binding, purified MHC/competitive/fluorescence; ≥ and ≤ were set here for values at or beyond the usual limits of such assays
HLA-B*15:01 [7] = experiment: as above; details: source organism: Zaire ebolavirus
HLA-A*24:02 [8] = experiment: as above
HLA-A*02:01 [9] = experiment: as above; details: source organism: Zaire ebolavirus
HLA-A*02:19 = experiment: IEDB peptide-MHC binding, purified MHC/direct/fluorescence; filed as Kd, often an IC50 or EC50 that approximates it; ≥ and ≤ were set here for values at or beyond the usual limits of such assays
HLA-B*08:01 [10] = experiment: as above; details: source organism: Vibrio vulnificus YJ016
HLA-A*26:01 = experiment: as above; details: source organism: Vibrio vulnificus YJ016
HLA-A*02:06 = experiment: as above
HLA-A*69:01 = experiment: as above
HLA-B*44:02 = experiment: as above
HLA-A*24:02 [11] = experiment: as above; details: source organism: Vibrio cholerae
HLA-A*02:03 = experiment: as above
HLA-A*02:12 = experiment: as above
HLA-A*02:11 = experiment: as above
HLA-C*06:02 = experiment: as above; details: source organism: Listeria monocytogenes J0161
HLA-C*05:01 = experiment: as above; details: source organism: Brucella melitensis bv. 1 str. 16M
HLA-A*11:01 = experiment: as above
HLA-A*02:16 = experiment: as above; details: source organism: Brucella suis 1330
HLA-A*29:02 = experiment: as above; details: source organism: Influenza A virus (A/Hong Kong/507/97(H5N1))
HLA-B*08:01 [12] = experiment: IEDB peptide-MHC binding, purified MHC/competitive/fluorescence; filed as Kd, often an IC50 or EC50 that approximates it; ≥ and ≤ were set here for values at or beyond the usual limits of such assays; details: source organism: Influenza A virus (A/X-31(H3N2))
HLA-B*51:01 = experiment: as above; details: source organism: Influenza A virus (A/X-31(H3N2))
[13] = source organism: Campylobacter jejuni RM1221
[14] = source organism: Zaire ebolavirus
[15] = source organism: Vibrio vulnificus YJ016
[16] = source organism: Vibrio cholerae
[17] = source organism: Brucella suis ATCC 23445
[18] = source organism: Brucella abortus
[19] = source organism: Vaccinia virus
[20] = source organism: Brucella suis 1330
[21] = source organism: Vaccinia virus Copenhagen
[22] = source organism: Influenza A virus (A/Hong Kong/507/97(H5N1))

Sequence: VQKVNPAPK
- Kd (HLA-B*48:01): ≥ 20 µM
- Kd (HLA-B*27:05; [13]): ≥ 10 µM
- Kd (HLA-B*08:03; source organism: Campylobacter jejuni subsp. jejuni 81116): ≥ 20 µM
- Kd (HLA-B*57:01): ≥ 20 µM
- Kd (HLA-B*46:01 [1]; [13]): ≥ 20 µM
- Kd (HLA-B*15:01 [2]; [13]): 1.12 µM
- Kd (HLA-B*58:01; [13]): ≥ 20 µM
- Kd (HLA-B*07:02; [13]): ≥ 20 µM
- Kd (HLA-A*03:01; [13]): 0.476 µM
- Kd (HLA-B*15:17): ≥ 20 µM
- Kd (HLA-B*18:01; [13]): ≥ 20 µM
- Kd (HLA-A*68:02): ≥ 20 µM
- Kd (HLA-A*01:01; [13]): ≥ 20 µM
- Kd (HLA-A*02:01 [3]; [13]): ≥ 20 µM
- Kd (HLA-A*31:01; [13]): 0.904 µM
- Kd (HLA-B*40:01; [13]): ≥ 20 µM

Sequence: YSQESPQSY
- Kd (HLA-A*80:01): ≥ 20 µM
- Kd (HLA-A*01:01; source organism: Mammarenavirus lassaense): 0.0011 µM
- Kd (HLA-B*46:01 [4]): 0.842 µM
- Kd (HLA-B*35:01): 0.044 µM

Sequence: YQGKFYMPF
- Kd (HLA-A*24:02 [5]; source organism: Yersinia pestis Nepal516): 0.0003 µM

Sequence: HMMVIFRLM
- IC50 (HLA-B*08:01 [6]; [14]): ≥ 3440 µM
- IC50 (HLA-B*15:01 [7]): ≥ 168 µM
- IC50 (HLA-A*24:02 [8]; [14]): 0.83 µM
- IC50 (HLA-A*02:01 [9]): 0.176 µM

Sequence: VVYKEAKIK
- Kd (HLA-A*02:19; [15]): ≥ 20 µM
- Kd (HLA-B*08:01 [10]): ≥ 20 µM
- Kd (HLA-A*26:01): ≥ 20 µM
- Kd (HLA-A*02:06; [15]): 0.657 µM
- Kd (HLA-A*69:01; [16]): ≥ 20 µM
- Kd (HLA-B*27:05; [16]): ≥ 20 µM
- Kd (HLA-B*46:01 [1]; [16]): ≥ 20 µM
- Kd (HLA-B*44:02; [16]): ≥ 20 µM
- Kd (HLA-B*15:01 [2]; [16]): ≥ 20 µM
- Kd (HLA-B*58:01; [16]): ≥ 20 µM
- Kd (HLA-B*07:02; [16]): ≥ 20 µM
- Kd (HLA-A*24:02 [11]): ≥ 20 µM
- Kd (HLA-A*03:01; [16]): 0.313 µM
- Kd (HLA-A*02:03; [15]): 1.12 µM
- Kd (HLA-A*02:12; [15]): 1.99 µM
- Kd (HLA-B*18:01; [16]): ≥ 20 µM
- Kd (HLA-A*01:01; [16]): ≥ 20 µM
- Kd (HLA-A*02:11; [15]): 0.868 µM
- Kd (HLA-A*02:01 [3]; [16]): 0.978 µM
- Kd (HLA-B*40:01; [16]): ≥ 20 µM

Sequence: YYVWMVQFF
- Kd (HLA-C*06:02): ≥ 20 µM
- Kd (HLA-A*24:02 [5]; source organism: Listeria monocytogenes J0161): 0.0002 µM

Sequence: LSDDSGLMV
- Kd (HLA-C*05:01): 0.007 µM
- Kd (HLA-A*02:19; [17]): ≥ 20 µM
- Kd (HLA-A*02:06; [17]): 0.062 µM
- Kd (HLA-B*27:05; [18]): ≥ 20 µM
- Kd (HLA-B*46:01 [1]; [18]): ≥ 20 µM
- Kd (HLA-B*44:02; [18]): ≥ 20 µM
- Kd (HLA-B*15:01 [2]; [18]): ≥ 20 µM
- Kd (HLA-B*58:01; [18]): ≥ 20 µM
- Kd (HLA-B*07:02; [18]): ≥ 20 µM
- Kd (HLA-A*03:01; [18]): ≥ 20 µM
- Kd (HLA-A*02:03; [17]): 0.42 µM
- Kd (HLA-A*02:12; [17]): 1.58 µM
- Kd (HLA-A*11:01; [18]): ≥ 20 µM
- Kd (HLA-A*01:01; [18]): 0.0217 µM
- Kd (HLA-A*02:11; [17]): 0.071 µM
- Kd (HLA-A*02:01 [3]; [18]): 1.05 µM
- Kd (HLA-A*31:01; [18]): ≥ 20 µM
- Kd (HLA-B*40:01; [18]): ≥ 20 µM

Sequence: FKPPKFRAF
- IC50 (HLA-B*08:01 [6]; [19]): ≥ 191 µM
- IC50 (HLA-A*24:02 [8]; [19]): 52.6 µM

Sequence: IFIYSFFTW
- Kd (HLA-A*24:02 [5]; source organism: Francisella tularensis subsp. holarctica FSC200): 0.0111 µM

Sequence: MRDGGSATV
- Kd (HLA-A*02:19; [20]): ≥ 20 µM
- Kd (HLA-A*02:06; [20]): ≥ 10 µM
- Kd (HLA-A*69:01; [20]): ≥ 20 µM
- Kd (HLA-A*02:16): ≥ 10 µM
- Kd (HLA-A*02:12; [20]): ≥ 20 µM
- Kd (HLA-A*02:01 [3]; source organism: Brucella suis): ≥ 20 µM

Sequence: GNIKHKERI
- IC50 (HLA-B*08:01 [6]; [21]): ≥ 199 µM
- IC50 (HLA-A*24:02 [8]; [21]): 47.7 µM

Sequence: LAKSVFNSL
- Kd (HLA-B*27:05; [22]): ≥ 20 µM
- Kd (HLA-B*08:03; source organism: Influenza A virus (A/Taiwan/2/2006(H1N1))): 2.13 µM
- Kd (HLA-B*46:01 [1]; [22]): ≥ 20 µM
- Kd (HLA-B*44:02; [22]): ≥ 20 µM
- Kd (HLA-B*15:01 [2]; [22]): ≥ 20 µM
- Kd (HLA-B*58:01; [22]): ≥ 20 µM
- Kd (HLA-A*03:01; [22]): ≥ 20 µM
- Kd (HLA-B*18:01; [22]): ≥ 20 µM
- Kd (HLA-A*11:01; [22]): ≥ 20 µM
- Kd (HLA-A*29:02): ≥ 20 µM
- Kd (HLA-A*01:01; [22]): ≥ 20 µM
- Kd (HLA-A*02:01 [3]; [22]): ≥ 20 µM
- Kd (HLA-B*40:01; [22]): ≥ 20 µM
- Kd (HLA-B*08:01 [12]): 0.726 µM
- Kd (HLA-B*51:01): ≥ 20 µM
